Test results from patent US20070117770, “Human ribosomal DNA (rDNA) and ribosomal RNA (rRNA) nucleic acids and uses thereof” (Cylene Pharmaceuticals, Inc., published 2007).

What was measured:
[1] = molecular target: T1, Nucleolin (MBP fusion, lacking N-terminal acidic stretches domain) (Homo sapiens, UniProt P19338 P19338:284-710); assay: filter; Bmax 51%; 60 mM KCl, 1 mM MgCl2; details: label: 32P; G4 parallel
Experimental: (§1) The assay also was conducted in a filter-binding format. In such forms of the assay, 0.2 nM of ³²P-labeled quadruplexes were incubated in 50 uL of the binding buffer (12.5 mM Tris-HCl, pH 7.6, 60 mM KCl, 1 mM MgCl2, 0.1 mM EDTA, 5% glycerol, 0.1 mg/mL BSA) for 10 min at 85 C and then for 10 min on ice and mixed with another 50 uL of binding buffer containing increasing amounts of recombinant protein Nucleolin. The protein-quadruplex mixtures were incubated for 30 min at ambient temperature and filtered through mixed cellulose ester membrane filters (Millipore) with gentle suction. The filters were washed twice with […] of binding buffer, dried and OptiPhase ‘SuperMix’ scintillation cocktail (Perkin Elmer) was added to the wells. Radioactivity was assayed with MicroBeta scintillation counter (Perkin Elmer). Binding curves were constructed and apparent Kd's and Bmax's for the complexes were calculated using the GraphPad Prizm software program (GraphPad Software). […]

[2] = molecular target: T1, Nucleolin (MBP fusion, lacking …); assay: filter; Bmax 60%; 60 mM KCl, 1 mM MgCl2; details: label: 32P; G4 mixed
Experimental: as §1

[3] = molecular target: T1, Nucleolin (MBP fusion, lacking …); assay: EMSA; random single-stranded control; details: label: 32P, no quadruplex
Experimental: In the assays, recombinant nucleolin (˜250 nM), which was fused to maltose binding protein and had the sequence under accession number NM_{—}005381 without the N-terminal acidic stretches domain, was incubated with each of the two ³²P-labeled nucleic acid ligands (10 or 250 nM). Nucleolin and the nucleic acid ligand were incubated in the presence or absence of a test compound of Formula A-1, B-1, C-6 or C-7 in an incubation buffer (12.5 mM Tris, pH 7.6, 60 mM KCl, 1 mM MgCl₂, 0.1 mM EDTA, 1 mM DTT, 5% glycerol, 0.1 mg/ml BSA) for 30 minutes at room temperature. Structures for A-1 and B-1 are shown above and structures for C-6 and C-7 are shown hereafter: The resulting complexes were separated on a 6% DNA retardation gel using 0.5× TBE with 20 mM KCl as a running buffer (i.e., electrophoresis mobility shift assay (EMSA)).
The assay also was conducted using nucleic acid ligands derived from human ribosomal DNA. Sequences of these nucleic acids are shown in the preceding example. It was determined from these assays that compound A-1, but not Actinomycin D, interfered with nucleolin/nucleic acid ligand interactions. […] A “+” represents the weakest nucleolin affinity and least interference by compound A-1 and a “++++” represents the strongest nucleolin affinity and greatest interference by compound A-1.

[4] = molecular target: T1, Nucleolin (MBP fusion, lacking …); assay: filter; Bmax 68%; 60 mM KCl, 1 mM MgCl2; details: label: 32P; G4 parallel
Experimental: as §1

[5] = molecular target: T1, Nucleolin (MBP fusion, lacking …); assay: EMSA; details: label: 32P; G4 antiparallel
Experimental: The following assays assessed effects of compounds on interactions between nucleolin and nucleic acid ligands capable of forming quadruplex (QP) and hairpin (HP) secondary structures. Nucleic acid ligands tested were a cMyc QP DNA having nucleotide sequence 5′-[…]-3′ (SEQ ID NO: 176) and a HP pre-rRNA region to which nucleolin binds, having the sequence 5′-[…]-3′ (SEQ ID NO: 177). In the assays, recombinant nucleolin (˜250 nM), which was fused to maltose binding protein and had the sequence under accession number NM_{—}005381 without the N-terminal acidic stretches domain, was incubated with each of the two ³²P-labeled nucleic acid ligands (10 or 250 nM). Nucleolin and the nucleic acid ligand were incubated in the presence or absence of a test compound of Formula A-1, B-1, C-6 or C-7 in an incubation buffer (12.5 mM Tris, pH 7.6, 60 mM KCl, 1 mM MgCl₂, 0.1 mM EDTA, 1 mM DTT, 5% glycerol, 0.1 mg/ml BSA) for 30 minutes at room temperature. […]
The assay also was conducted using nucleic acid ligands derived from human ribosomal DNA. […] It was determined from these assays that compound A-1, but not Actinomycin D, interfered with nucleolin/nucleic acid ligand interactions. […]

[6] = molecular target: T1, Nucleolin (MBP fusion, lacking …); assay: filter; Bmax 100%; 62-mer printed here, Example 6 table prints a shorter sequence under the same name; details: label: 32P; G4 mixed
Experimental: as §1

[7] = molecular target: T1, Nucleolin (MBP fusion, lacking …); assay: EMSA; complex disrupted by compounds A-1, B-1, C-6, C-7; 60 mM KCl, 1 mM MgCl2, room temperature; details: label: 32P; G4
Experimental: The following assays assessed effects of compounds on interactions between nucleolin and nucleic acid ligands capable of forming quadruplex (QP) and hairpin (HP) secondary structures. Nucleic acid ligands tested were a cMyc QP DNA having nucleotide sequence 5′-[…]-3′ (SEQ ID NO: 176) and a HP pre-rRNA region to which nucleolin binds, having the sequence 5′-[…]-3′ (SEQ ID NO: 177). In the assays, recombinant nucleolin (˜250 nM), which was fused to maltose binding protein and had the sequence under accession number NM_{—}005381 without the N-terminal acidic stretches domain, was incubated with each of the two ³²P-labeled nucleic acid ligands (10 or 250 nM). Nucleolin and the nucleic acid ligand were incubated in the presence or absence of a test compound of Formula A-1, B-1, C-6 or C-7 in an incubation buffer (12.5 mM Tris, pH 7.6, 60 mM KCl, 1 mM MgCl₂, 0.1 mM EDTA, 1 mM DTT, 5% glycerol, 0.1 mg/ml BSA) for 30 minutes at room temperature. Structures for A-1 and B-1 are shown above and structures for C-6 and C-7 are shown hereafter: The resulting complexes were separated on a 6% DNA retardation gel using 0.5× TBE with 20 mM KCl as a running buffer (i.e., electrophoresis mobility shift assay (EMSA)).

[8] = molecular target: T1, Nucleolin (MBP fusion, lacking …); assay: filter; Bmax 13%; 60 mM KCl, 1 mM MgCl2; details: label: 32P; G4 antiparallel
Experimental: as §1

T1 sequence (P19338 284-710, one chain of several): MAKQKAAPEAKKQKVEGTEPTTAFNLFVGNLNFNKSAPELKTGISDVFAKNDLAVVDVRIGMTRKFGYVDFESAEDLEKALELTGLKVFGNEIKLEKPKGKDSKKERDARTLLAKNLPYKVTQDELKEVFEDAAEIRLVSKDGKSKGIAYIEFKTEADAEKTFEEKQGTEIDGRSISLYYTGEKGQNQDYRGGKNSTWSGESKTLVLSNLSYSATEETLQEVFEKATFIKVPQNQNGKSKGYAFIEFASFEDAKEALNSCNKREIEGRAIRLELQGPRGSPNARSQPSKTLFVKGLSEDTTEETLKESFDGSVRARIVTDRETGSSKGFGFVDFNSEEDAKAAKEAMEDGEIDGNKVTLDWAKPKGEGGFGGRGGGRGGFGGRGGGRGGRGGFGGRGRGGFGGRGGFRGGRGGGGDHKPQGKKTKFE

GGGCGGGGGGGGCGGGGGG (structured_DNA) [6534NT] gave a Kd [1] of 1.1 nM.

In the case of GGGTCCGGAAGGGGAAGGGTGCCGGCGGGGAGAGAGGGTCGGGGG (structured_DNA) [7253NT], the Kd [2] is reported as 0.4 nM.

GTCGTAACGTCGATCAGTTTACGACAT (ssDNA) [RND27]: no binding [3].

Work on GGGTGGCGGGGGGGAGAGGGGGG (structured_DNA) [6960NT] yielded a Kd [4] of 0.5 nM.

GGGCTGGGTCGGTCGGGCTGGGG (structured_DNA) [10816NT]: no binding [5].

B1: 8511NT (structured_DNA)
DNA: GGGGGCGGGCTCCGGCGGGTGCGGGGGTGGGCGGGCGGGGCCGGGGGTGGGGTCGGCGGGGG
For B1, the Kd [6] was 0.6 nM.

TGGGGAGGGTGGGGAGGGTGGGGAAGG (structured_DNA) [cMyc QP DNA]: binds [7].

For GGGAGGGCGCGCGGGTCGGGG (structured_DNA) [8749NT], the Kd [8] was 1.9 nM.
